Test results reported in patent publication US20160362487A1 (Regeneron, published 2016).

How the values were obtained:
[1] = target: T1, cynomolgus monkey IL-33 expressed with a C-terminal hexahistidine tag (cynomolgus monkey); test: SPR 25C, pH6.0 chase, mAb captured
T1 construct: also called MfIL-33-6His; Mf-IL-33-6His
T1 chain: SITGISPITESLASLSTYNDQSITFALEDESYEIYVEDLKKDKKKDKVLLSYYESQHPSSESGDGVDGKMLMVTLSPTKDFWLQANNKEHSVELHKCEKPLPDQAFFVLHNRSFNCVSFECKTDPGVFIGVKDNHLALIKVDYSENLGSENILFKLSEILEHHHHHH
Description: (§1) Equilibrium dissociation constants (KD values) for IL-33 binding to purified anti-IL-33 monoclonal antibodies were determined using a real-time surface plasmon resonance biosensor using a Biacore 4000 instrument. The Biacore sensor surface was first derivatized by amine coupling with either a polyclonal rabbit anti-mouse antibody (GE, # BR-1008-38) or with a monoclonal mouse anti-human Fc antibody (GE, # BR-1008-39) to capture anti-IL-33 monoclonal antibodies expressed with mouse or with human IgG4 constant regions, respectively. All Biacore binding studies were performed in 0.01M ADA pH 7.4, 0.15M NaCl, 3 mM EDTA, and 0.05% v/v Surfactant Tween-20 (ABS-ET running buffer). […] Association of either hIL-33 or MfIL-33-6His to the captured monoclonal antibody was monitored for 4 minutes and their dissociation in ABS-ET running buffer was monitored for 10 minutes. The effect of reduced pH on the binding of each anti-IL-33 antibody to either hIL-33 or MfIL-33-6His was studied using an in-line pH chase assay format in 0.01M ADA pH 6.0, 0.15M NaCl, 3 mM EDTA, and 0.05% v/v Surfactant Tween-20 (ABS-ET pH6 buffer). To achieve this, association of either hIL-33 or MfIL-33-6His to the captured monoclonal antibody was monitored for 4 minutes in ABS-ET running buffer. Following a 30 second dissociation of either hIL-33 or MfIL-33-6His in ABS-ET running buffer, ABS-ET pH6 buffer was injected for 3 minutes, and the analyte dissociation under the low-pH conditions was measured. All the binding kinetic experiments were performed at both 25° C. and 37° C. Kinetic association (kₐ) and dissociation (kd) constants were determined by fitting the real-time sensorgrams to a 1:1 binding model using Scrubber 2.0c curve fitting software. Binding dissociation equilibrium constants (KD) and dissociative half-lives (t½) were calculated from the kinetic rate constants as: […]

[2] = target: T2, human IL-33 (R&D Systems, #3625-IL-010/CF) (human, UniProt O95760 112-270); test: SPR 25C, pH6.0 chase, mAb captured
T2 construct: Commercial recombinant protein; also called hIL-33; interleukin-33
T2 sequence (looked up): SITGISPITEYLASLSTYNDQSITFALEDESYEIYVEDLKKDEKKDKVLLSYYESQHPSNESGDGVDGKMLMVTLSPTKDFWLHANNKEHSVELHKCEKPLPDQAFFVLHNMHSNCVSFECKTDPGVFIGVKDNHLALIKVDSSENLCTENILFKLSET
Description: as §1

[3] = target: T2, human IL-33 (R&D Systems, …); test: BLI; hIL-33 pre-mixed with mAb-2 Isotype control 2
Description: (§2) Binding competition between a panel of different anti-IL-33 monoclonal antibodies was determined using a real time, label-free bio-layer interferometry assay on an Octet® HTX biosensor (ForteBio, A Division of Pall Life Sciences). The experiment was performed at 25° C. using a buffer of 0.01M HEPES pH7.4, 0.15M NaCl, 0.05% v/v Surfactant Tween-20, and 0.1 mg/ml BSA (HBS-ET kinetics buffer) with the plate shaking at a speed of 1000 rpm. To assess whether two antibodies were able to compete with one another for binding to human IL-33, a pre-mix assay format was used where 100 nM of human IL-33 (R&D Systems; #3625-IL-010/CF) was pre-mixed with 500 nM of different anti-IL-33 monoclonal antibodies (subsequently referred to as mAb-2) for at least 2 hours prior to running the binding competition assay. […] Following the capture step, unoccupied anti-mouse Fc polyclonal antibody and anti-human Fc polyclonal antibody on the Octet biosensors were saturated by submerging them for 4 minutes into wells containing 200 μg/mL of a non-specific monoclonal antibody with a mouse Fc or with a human Fc, respectively. Finally, the Octet biosensors were immersed for 4 minutes into wells containing the pre-mixed samples of 100 nM of human IL-33 and 500 nM of mAb-2. At the end of each cycle, the non-covalently captured anti-IL-33 antibodies along with the bound pre-complex of human IL-33 and mAb-2 were removed from the biosensors using three alternate 20 second immersions into 10 mM HCl followed by submerging into HBS-ET kinetics buffer. The biosensors were washed in HBS-ET kinetics buffer in between every step of the experiment. The real-time binding response was monitored during the binding events, and the binding response (in units of nm) at the end of every step was recorded.

[4] = target: T2, human IL-33 (R&D Systems, …); test: BLI; hIL-33 pre-mixed with mAb-2 Isotype control 1
Description: as §2

[5] = target: T1, cynomolgus monkey IL-33 expressed with …; test: competition ELISA, 150 pM MfIL-33-6His on coated hST2-hFc
Description: The ability of anti-IL-33 antibodies to block either human IL-33 (hIL-33) or cynomologus monkey IL-33 binding to the human ST2 receptor was measured using a competition sandwich ELISA. […] The antibody/IL-33 mixtures were incubated for 1 hour at room temperature before they were transferred to the hST2-hFc-coated microtiter plates. After incubating for 1 hour at room temperature, the wells were then washed, and plate-bound biotin-hIL-33 was detected with streptavidin conjugated with horse-radish peroxidase (HRP) (Thermo Scientific, Cat # N200), and plate-bound MfIL-33-6His was detected with a HRP conjugated anti-His monoclonal antibody (Qiagen, #34460). All samples were developed with a TMB solution (BD biosciences, #51-2607KC) to produce a colorimetric reaction and then quenched by acidification with 1M sulfuric acid before measuring absorbance at 450 nm on a Victor X5 plate reader. Data analysis was performed using a sigmoidal dose-response model within Prism™ software. […] Percent blockade was calculated as the ratio of the reduction in signal observed in the presence of antibody relative to the difference between the signal with IL-33 alone and background (signal from HRP-conjugated secondary antibody or streptavidin alone). The absorbance measured for the constant concentration of biotin-hIL-33 or MfIL-33-6His alone is defined as 0% blocking and the absorbance measured for no added IL-33 is defined as 100% blocking.

B1: H4H9670P (antibody, V domains shown)
VH: EVQLVESGGGLVQPGGSLRLSCAASGFTLSSYAMSWVRQAPGKGLEWVSAISGSGGSTYYADSVKGRFTISRDNSKNSLYLQLNSLRAEDTAVYYCAKTLYTTSWYGGFQHWGQGTLVTVSS
VL: DIQMTQSPSSVSASIGDRVTITCRASQGISSWLAWYQQKPGKVPKLLIYAASSLQSGFPSRFSGSGSGTDFTLTISSLQPEDFATYYCQQTHSFPWTVGQGTKVEIK
notes: Human IgG4 Fc (H4H)
B1 was tested, and the koff [1] was 0.000393 s⁻¹, the t½ [1] was 29 min and the “t½ Ratio (pH 7.4/pH 6.0)” value [1] was 0.2. The koff [2] was 0.000825 s⁻¹, the t½ [2] was 14 min and the “t½ Ratio (pH 7.4/pH 6.0)” value [2] was 2.9. For the same binder, the “mAb-1 Binding to the Pre-complex of mAb-2 & hIL-33” value (“mAb-1 Binding to the Pre-complex” below) [3] was 0.12 nm, the “mAb-1 Binding to the Pre-complex” value [4] was 0.19 nm and the “% Maximum blocking” value [5] was 69%. It also gave an IC50 [5] of 3.5 nM.

B2: H4H9663P (antibody, human IgG4, V domains shown)
VH: QVQLVQSGAEVKKPGASVKVSCKASGYTFTGHYMYWMRQAPGQGLEWMGWINPNSGGTNYAQKFQDRVTMTRDTSISTAYMELSRLRSDDTAVYYCARGRYGSSWYGGFEYWGQGTLVTVSS
VL: DIQMTQSPSSVSASVGDRVTITCRASQGITSWLAWYQQKPGKAPNLLIYAAASLQSGVPSRFSGSGSGTDFTLTISSLQPEDFTTYYCQQAYSLPLTFGGGTKVEIK
notes: Human IgG4 Fc (H4H)
B2 was tested, and the koff [1] was 0.000683 s⁻¹, the t½ [1] was 17 min and the “t½ Ratio (pH 7.4/pH 6.0)” value [1] was 0.7. The koff [2] was 0.0011 s⁻¹, the t½ [2] was 11 min and the “t½ Ratio (pH 7.4/pH 6.0)” value [2] was 2.7. The “mAb-1 Binding to the Pre-complex” value [3] was 0.09 nm, the “mAb-1 Binding to the Pre-complex” value [4] was 0.17 nm and the “% Maximum blocking” value [5] was 81%. It also gave an IC50 [5] of 1.2 nM.

B3: H4H9666P (antibody, human IgG4, V domains shown)
VH: QVQLVQSGAEVKKPGASVKVSCKASGYTFTSYGISWVRQAPGQGLEWMGWIRAYNGYTNYAQKFQGRVTMTTDTSTNTAYMELRTLNSDDTAVYYCARDRYSGSFHGNFDYWGQGTLVTVSS
VL: DIQMTQSPSSVSASVGDRVTITCRASQGIFSWLAWYQQKPGKAPKVLIYAASNLESGVPSRFSGSGSGTDFTLTISSLQPEDFATYYCQQANSLPLTFGGGTKVEIK
notes: Human IgG4 Fc (H4H)
B3 was tested, and the koff [1] was 0.00809 s⁻¹, the t½ [1] was 1.4 min and the “t½ Ratio (pH 7.4/pH 6.0)” value [1] was 2.3. For the same binder, the koff [2] was 0.00134 s⁻¹, the t½ [2] was 9 min and the “t½ Ratio (pH 7.4/pH 6.0)” value [2] was 4.8. The “mAb-1 Binding to the Pre-complex” value [3] was 0.08 nm, the “mAb-1 Binding to the Pre-complex” value [4] was 0.15 nm and the “% Maximum blocking” value [5] was 40%. It also gave an IC50 [5] of 13 nM.

B4: H4H9662P (antibody, V domains shown)
VH: EVQLVESGGGLVQPGGSLRLSCAASGFTFSSYALTWVRQAPGKGLEWVSFISGSGGRPFYADSVKGRFTISRDNSKNMLYLQMNSLRAEDTAIYYCAKSLYTTSWYGGFDSWGQGTLVTVSS
VL: DIQMTQSPSSVSASVGDRVTITCRASQGVVSWLAWYQQKPGKAPKLLIYAASSLQSGVPSRFSGSGSGTDFTLTISSLQPEDFATYYCQQSNSFPFTLGPGTKVDIK
notes: Human IgG4 Fc (H4H)
For B4, the koff [1] was 0.000117 s⁻¹, the t½ [1] was 99 min and the “t½ Ratio (pH 7.4/pH 6.0)” value [1] was 0.3. The koff [2] was 0.000826 s⁻¹, the t½ [2] was 14 min and the “t½ Ratio (pH 7.4/pH 6.0)” value [2] was 3.3. The “mAb-1 Binding to the Pre-complex” value [3] was 0.11 nm, the “mAb-1 Binding to the Pre-complex” value [4] was 0.19 nm and the “% Maximum blocking” value [5] was 87%. The IC50 [5] was 0.86 nM.

B5: H4H9665P (antibody, human IgG4, V domains shown)
VH: EVQLVESGGGLVQPGGSLRLSCAASGFTFSNYAMTWVRQAPGKGLEWVSTISGSGDNTYYADSVQGRFTISRGHSKNTLYLQMNSLRAEDTAVYYCAKPTYSRSWYGAFDFWGQGTMVTVSS
VL: DIQMTQSPSSVSASVGDRVTITCRASQGISSWLAWYQQKPGKAPQLLIYAASRLQSGVPSRFWGSGSGTDFTLTISSLQPEDFATYYCQQANNFPFTFGPGTKVDIK
notes: Human IgG4 Fc (H4H)
With B5 the koff [1] was 0.000753 s⁻¹, the t½ [1] was 15 min and the “t½ Ratio (pH 7.4/pH 6.0)” value [1] was 1.3. For the same binder, the koff [2] was 0.00212 s⁻¹, the t½ [2] was 5 min and the “t½ Ratio (pH 7.4/pH 6.0)” value [2] was 4.5. The “mAb-1 Binding to the Pre-complex” value [3] was 0.09 nm, the “mAb-1 Binding to the Pre-complex” value [4] was 0.14 nm and the “% Maximum blocking” value [5] was 81%. For the same binder, the IC50 [5] was 0.42 nM.

B6: H4H9664P (antibody, human IgG4, V domains shown)
VH: QVQLVESGGGVVQPGRSLRLSCAASGFTFSSYGLHWVRQSPGKGLEWVALISYDGSNKYYADSVKGRFTISRDNSKNTLYLQMNSLRPEDTAGYFCAKSLYTTSWYGGFDYWGQGTLVTVSS
VL: DIQMTQSPSSVSASVGDRVTITCRASQGIRSWLAWYQQKPGKAPNLLIYAASSLQSGVPSRFSGSGSGTDFTLTISSLQPEDFATYYCQQANSFPPTFGPGTKVDIK
notes: Human IgG4 Fc (H4H)
For B6, the koff [1] was 0.00048 s⁻¹, the t½ [1] was 24 min and the “t½ Ratio (pH 7.4/pH 6.0)” value [1] was 0.3. The koff [2] was 0.000823 s⁻¹, the t½ [2] was 14 min and the “t½ Ratio (pH 7.4/pH 6.0)” value [2] was 3.2. For the same binder, the “mAb-1 Binding to the Pre-complex” value [3] was 0.1 nm, the “mAb-1 Binding to the Pre-complex” value [4] was 0.16 nm and the “% Maximum blocking” value [5] was 67%. The IC50 [5] was 3.8 nM.

B7: H4H9667P (antibody, human IgG4, V domains shown)
VH: EVQLVESGGGLVQPGGSLRLSCAASGFTFSTYSMHWVRQAPGKGLEYVSTINNNGDTTYYADSVKGRFTISRDNSKNTLYLQLGSLRPEDMAVYYCARQTYTSSWYGGFDSWGQGTLVTVSS
VL: DIQMTQSPSSVSASVGDRVTITCRASQGITSWLAWYQQKPGKAPKLLIYAASNLQSGVPSRFSGSGSGTDFTLTITSLQPEDFATYYCQQANSLPFTFGPGTKVDIK
notes: Human IgG4 Fc (H4H)
For B7, the koff [1] was 0.000696 s⁻¹, the t½ [1] was 17 min and the “t½ Ratio (pH 7.4/pH 6.0)” value [1] was 0.7. For the same binder, the koff [2] was 0.000566 s⁻¹, the t½ [2] was 20 min and the “t½ Ratio (pH 7.4/pH 6.0)” value [2] was 2.2. The “mAb-1 Binding to the Pre-complex” value [3] was 0.12 nm, the “mAb-1 Binding to the Pre-complex” value [4] was 0.23 nm and the “% Maximum blocking” value [5] was 72%. It also gave an IC50 [5] of 4.1 nM.
